Assay: yeast display, Sf9 membrane polyspecificity reagent, FACS + sequencing; frameworks hold sequencing errors
In short: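 Genes from sorted yeast were amplified by colony PCR, read by MiSeq 2 × 250 sequencing and filtered on CDR length. These cells carried a synthetic nanobody library in Saccharomyces cerevisiae BJ5465 and were sorted by FACS into low and high (top ~1%) gates on anti-HA and streptavidin fluorescence. Polyreactivity is labelled according to the gate of origin.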

Row | Sequence | polyreactivity (PSR sort gate)
1 | QVQLVESGGGLVQAGGSLRLSCAASGGILVFYAMGWYRQAPGKERELVAAINVSGGSTYYADSVKGRFTISRDNAKNTVYLQMNSLKPEDTAVYYCAALGPYLDYGVQYGYWGQGTQVTVSS | low polyreactivity
2 | QVQLVESGGGLVQAGGSLRLSCAASGSTFIYNTMGWYRQAPGKEREFVAAITQSGGDTYYADSVKGRFTISRDNAKNTVYLQMNSLKPEDTADYYCAAYWILNNFEMYYWGQGPQVTVSS | low polyreactivity
3 | QVQLVESGGGLVQAGGRLRLSCAASGRIFSYAMGWYRHAPGNERELVGGISRSGGSTYYADSVKGRFTISRDNAKNTVYLQMNSQKPVDTAVYYCAADSSLSASEYDSWGQGTQVTVSS | high polyreactivity
4 | QVQLVESGGGLVQAGGSLRLSCAPSGGTFVSYVMGWYRQAPGKERELVAAISVSGGRTYYADSVKGRFTISRDNAKNTVYLQMNSLKPEDTAVYYCAADSVVVGSPGNDYWGQGTQVTVSS | high polyreactivity
5 | QVQLVESGGGLVQAGGSLRLSCAASGFIFHYYAMGWYRQAPGKERELVAAISSGGGRTYYADSVKGRFTISRDNAKNTVYLLMNSLKPEDTAVYYCAARYAVNAWGGRRDYWGQGTEVTVSS | high polyreactivity
6 | QVQLVESGGGLVQAGGSLRLSCAASGSTFTRYAMGWYRQAPGKERELVAAISGGGSTNYADSVKGRFTISRDNANNTVYLQKNSLKPEVTAVYFCAARVRTTGYSQMYYWGQGTQVTVSS | low polyreactivity
7 | QVQLEESGGGFVQAGGSLRLSCAASGFIFRRYAMGWYRQAPGKERELVAAISWRSGSTYYADSVKGRFTISRDNAKNTVYSPMKCLKPEDTAVYYCAAKDQATYQLYYWGQGTQVTVSS | high polyreactivity
8 | QVQLVESGGGLVQAGGSLRISCAASGSIFRGNAMGWYRQAHGKERELVAAITRGVSTYYADSVKGRFTISRDNAKNTVYLQMNSLKPEDTAVYYCAKPYWWGYYSWGQGSQVTVSS | high polyreactivity
9 | QVQLVESGGGLVQAGGSLRLSCAASGRIFNYAMGWYRQAPGKERELVAAISRGGGRTYYADSVKGRFTISRDNAKNTVYLQMNSLKPEDTAVYYCAADLSPEYDYWGQGTQVTVSS | high polyreactivity
10 | QVQLVESGGGLVQAGGSLRLSCAASGRTFVLYTMGWYRQAPGKERELVAAISGSGGRSYYADSVKGRFTISRDHAKNSVYLQMNSLKPEDTAVYYCAAYGQGLPLYGYWGQGTQVTVSS | high polyreactivity
11 | QAQLHESAGGLVQAGGCLRLSCAASGYFSKKWGMGWYRKAPGKERELVATIAKGASTYYADSMKGRFTISRDNAKYTMYRQMNSLKPEDTAVYYCGATQQDDQGLGYWGQDTQVTVSS | high polyreactivity
12 | QVQLVESGGGLVQAGGSLRLSCAASGIISSVYAMGWYRQARGKERELVAAISGSGGSTYYADSVKGRFTISRDNAKNTVYLQMNSLKPEDTAVYYCAKGYQYQGNSYGYWGQGTQVTVSS | low polyreactivity
13 | QVQLVESGGGLVQAGGSLRLSCAASGSTLSHYAMGWYRQAPGKERELVAAINSNGGSTYYADSVKGRFTISRDNAKNTVYLQMNSLKPEDTAVYYCKTYFRYFSFYGRPFDYWGQGTQVTVSS | high polyreactivity
14 | QVQLVASGGGLVQSGGSLRLSCAASGLTFEQYAMGWYRQAPGKERELVAAISRRGTSTYYADSVKARFTISRDYAKNYVYLQMNSRKPEDTAVYYCNAGWWYLGSPFDRDYWGQGTLVTVSS | high polyreactivity
15 | QVQVVESGGGFVQAGGSLRVSCAASGSTFRANAMGCYTQAPGKERELVAAISQSGGITYYADSVKGRFTISRDIAKNTVYLQMNSLKPEDTAVYYCAAKIALDNDYWGQGTQVTVSS | high polyreactivity
16 | QVQLVESWGGLVQAGGSLRLSCPASGYIIQTYAMGWYRQAPGKEREFLAAMTSGAGRTSYADSVKGRFTISRDNAKNTVYLQLHRLKPEDTAVYFCAARWRYQLSGSRLSYGKYDYWGQGTQVTVSS | high polyreactivity
17 | QVQLVESGRGLVQAGGSLRLSCAASGSTFTEYAMGWYREAPGKERELFAAINRSGGGTYYADSVKGRFTISRDNAKNTVYLQINSLKPEDTADYYCAKDWYRRYIRDYWGQGTQVTVSS | high polyreactivity
18 | QVQLVESGVGLVQAGGSLRLICAASGSTFAYNDMGWYRQAPGKERELVAAINGGGGSTYYGDSVKGRFTISRDNAKNTVYLHMNSLKPEVTAVYYCAKGEWSYVDSFGPYYDLVYWGQGTQVTVSS | low polyreactivity
19 | QVQLVESGGGLVQAGGSLRLSCAASGLTFDYYAMGWYRQAPGKERELVAAISIGGSTNYADSVKGRFTISRDNAKNTVYLQMNSLKPEDTAVYYCNAEFAPWGSAYGHDQYDYWGQGTQVTVSS | low polyreactivity
20 | QVQLVESGGGLVQAGGSLRLSCAASGRIFYRNAMGWYRQAPGKERELVAAISRSGGTTYYADSVKGRFTISRDNAKNTVYLQMNSLKPEDTAVYYCAALVPYSYPGYYYWGQGTQVTVSS | high polyreactivity
21 | QDQLVESGGGLVQAGVSLRLSCPASGYNFDYYVMGWYRQAPGKERELVAAISSSGGSTYYADSVKGRFTISRDNAKNTVYLQMNSLKPEDTAVYYCATKPYPYYLYYYWGQGTQVTVSS | high polyreactivity

Row | Sequence | polyreactivity (PSR sort gate)
22 | QVQLVESGGGLVQAGGSLRLSCAASGSTFGPYAMGWYRQAPGKERELVATINSSGSTNYADSVKGRFTISRDNAKNTVYLQMKSLKPEDTAVYYCATLHYYYWYDYWGQGTQVTVSS | low polyreactivity
23 | QVQLVESGGGLVQAGGSLRLSCAASGRIFYYNAMGWYRQAPGKERELVAAINIGGGTKYADSVKGRFTISRDNAKNTVYLQMNSLKPEDTAVYYCAAGIKRYLSYYTRYGYWGQGTQVTVSS | high polyreactivity
24 | QVQLVESGGGLVQAGGSLRLSCASSGRIFKKYAMGWYIQAPGKERELVATISSGGSTYYADSVKGRFTISRDNAKNTVYLQMNSLKREDTAGSYCARREYVRRDYFVTTYDYWGQGTQVTVSS | low polyreactivity
25 | QVQLVESGGGLVQAGGSLRLSCAASGSTLLYYVMGWYRQAPGKERELVAAITGTGGRTYYADSVKGRFTISRDNAKNTVYLQMNSLKPEDTAVYYCAADGKFEYDYWGQGTQVTVSS | low polyreactivity
26 | QVQLVESGGGLVHAGGSLRLSCAASGSTFDRNAMGWARQAPGKDMELVDAISRSGGSTNYADSVKGRFTISRDNAKNTVYLQMNSLKPEDTAVYYCAAVRPLWYGQGWALYWFEYWGQGTQVTVSS | low polyreactivity
27 | QVQLVESGGGLVQAGGSLRLTCAASGLIFRPYTMGWYRQAPGKERELVATISGSGASTNYADSVKGRFTNSRDNAKNTVYFQMNSLKPEDTSVYYCKGRSYSRMYYWGQGTQVTVSS | high polyreactivity
28 | QVQLVESGGGLVQAGGSLRLSCAASGFIFDYYAMGWYRQAPGKERELVAAISGSGTSTYYADSVKGRFTISRDNAKYTVYLQMNSLKPEDTAVYYCSAESDWWSDIGYYWGQGTQVTVSS | high polyreactivity
29 | QVQLVESGGGLVQAGGSLRLSCAASGRTFVSYDMGWYRQAPGKERELVAAITYSGGSSTYYADSVKGRFTISRDNAKNTVYLQMNSLKPEDTAVYYCATDYSLSFELDYWGQGTQVTVSS | low polyreactivity
30 | QVQLVESVRGLVQAGGSLRISCASSGSTFFTYPMGWYRQAPGKERELVASISIGGSTNYADSVKGRFTISRDNAKNTVYLQMNSLKPEDTAVYYCAKRYFTFGVDYDYWGQGTQVSVSS | low polyreactivity
31 | QVQLVESGGGLVQAGGSLRLSCAASGFTFGRYAMGGYRQAPGKERELVAAITSRGGSTYYADSVKGRFTISRDNAKNTVYLQMNSLKPEDTAVYYCAAATNTGPRGYEYWGQGTQVTVSS | high polyreactivity
32 | QVQLVESGGGLVQAGGSLRLSCAASGGTFWVYAMGWYRQAPGKERELVAAIRWRGGRTYYADSVKGRFTISRDNAKNTVYLQMNSLKPEDTEVYYCAATTWRSGRYNYWGQGTQVTVSS | high polyreactivity
33 | QVQLVESGGGLVQAGGSLRLSCAASGSTFDDNAMGWYRQAPGKERELVAAITYRGTRTYYADSVKGRFTISRDNAKNTVYLQMNSLKPEDTAVYYCAADSESVGYEYWGQGTQVTVSS | high polyreactivity
34 | QVQRVESGGGLVQSGGSLRLSCAASGRIFYLYARGWNSQAPGKERELVAAITWSGGSTTYADSVKGRFTISRDNAKNTVYLQMNSLKPEDTAVYYCNADGWSFPSFSPMDYWGQGTQVTVSS | low polyreactivity
35 | QVQRVDSGGGLVQAGGSLRLICAASGFTFKYYAMGWYRQAPGKERELVAAITRGGDTYYADSVMGRFTISRDNAKNTVYLQMNRLKPEETAVYYCNTASDKRAFDYWGQGTQLTVSS | low polyreactivity
36 | QVQLVESGGGLVQAGGSLRLSCAASGFTFYRYAMGSYRQAPGKERELFAAIRKSGGSTYYADSVKGRFTISRDNAKNTVYLLMNSMKAEDTAVYYCAKRYATDGFGYWGQGTQVTVSS | high polyreactivity
37 | QVQLVESGGGLVQAGGSLRLSCAASGGIFDENAMGWYRQAPGKARELVAGITQRGASTNYADSVKGRFTISRDNAKNTVYLQMNSLKPEDTAVYYCDADVGTVISYEYWGQGTQVTVSS | low polyreactivity
38 | QVQLVESGGGLVQAGGSLRLSCAASGRIFLWYAMGWYRQAPGKERELVAAIWRGGSTYYADSVKGRFTISRDNAKNTVYLLMNSLKPEDTAVYYCAAEDVYFGYDYWGQGTQVTVSS | low polyreactivity
39 | QVQLVESGGGLVQAGGSLRLSCAASGSTFYPNAMGWYRQAPGKERELVARISGRGGRTYYADSVKGRFTISRDNAKNTVYLLMNSLKPEDTAVYYCSKDPSSDLDYDYWGQGTQVTVSS | low polyreactivity
40 | QVQLVESGGGLVQAGGSLRLSCAASGSTFYRNAMGWYRQAPGKEREFVATINRGGSTYYADSVKGRFTISRDNAKNTVYLQMNSLKPEDTAVYYCNAKYKQRHGYSAVTSYATYDYWGQGTQVTVSS | high polyreactivity
41 | QVQLVESGGGLVQAGGSLRLSCAASGRIFSYYAMGWYRQAPGKERELVASITSGGSTYADSVKGRFTISRDNAKNTVYLQMNSLKPEDTAVYYCAKGYYWLSTYGDSRYGYWGQGTQVTVSS | high polyreactivity
